Measured values published in patent publication US9284543B2, “Neutral active soluble truncated PH20 polypeptides and uses thereof” (Halozyme, Inc., priority 2008, dated 2016).

B1: SPAM1-IVSI: C-terminally truncated human PH20, precursor 498 aa (SEQ ID NO:49), mature 463 aa (SEQ ID NO:101) (protein, listed as Homo sapiens)
chain 1: MGVLKFKHIFFRSFVKSSGVSQIVFTFLLIPCCLTLNFRAPPVIPNVPFLWAWNAPSEFCLGKFDEPLDMSLFSFIGSPRINATGQGVTIFYVDRLGYYPYIDSITGVTVNGGIPQKISLQDHLDKAKKDITFYMPVDNLGMAVIDWEEWRPTWARNWKPKDVYKNRSIELVQQQNVQLSLTEATEKAKQEFEKAGKDFLVETIKLGKLLRPNHLWGYYLFPDCYNHHYKKPGYNGSCFNVEIKRNDDLSWLWNESTALYPSIYLNTQQSPVAATLYVRNRVREAIRVSKIPDAKSPLPVFAYTRIVFTDQVLKFLSQDELVYTFGETVALGASGIVIWGTLSIMRSMKSCLLLDNYMETILNPYIINVTLAAKMCSQVLCQEQGVCIRKNWNSSDYLHLNPDNFAIQLEKGGKFTVRGKPTLEDLEQFSEKFYCSCYSTLSCKEKADVKDTDAVDVCIADGVCIDAFLKPPMETEEPQIFYNASPSTLSATMFIVSI
chain 2: LNFRAPPVIPNVPFLWAWNAPSEFCLGKFDEPLDMSLFSFIGSPRINATGQGVTIFYVDRLGYYPYIDSITGVTVNGGIPQKISLQDHLDKAKKDITFYMPVDNLGMAVIDWEEWRPTWARNWKPKDVYKNRSIELVQQQNVQLSLTEATEKAKQEFEKAGKDFLVETIKLGKLLRPNHLWGYYLFPDCYNHHYKKPGYNGSCFNVEIKRNDDLSWLWNESTALYPSIYLNTQQSPVAATLYVRNRVREAIRVSKIPDAKSPLPVFAYTRIVFTDQVLKFLSQDELVYTFGETVALGASGIVIWGTLSIMRSMKSCLLLDNYMETILNPYIINVTLAAKMCSQVLCQEQGVCIRKNWNSSDYLHLNPDNFAIQLEKGGKFTVRGKPTLEDLEQFSEKFYCSCYSTLSCKEKADVKDTDAVDVCIADGVCIDAFLKPPMETEEPQIFYNASPSTLSATMFIVSI
modifications: HuPH20 precursor 1-498; Mature HuPH20 36-498
B2: SPAM1-VSIL: C-terminally truncated human PH20, precursor 499 aa (SEQ ID NO:7), mature 464 aa (SEQ ID NO:59) (protein, listed as Homo sapiens)
chain: LNFRAPPVIPNVPFLWAWNAPSEFCLGKFDEPLDMSLFSFIGSPRINATGQGVTIFYVDRLGYYPYIDSITGVTVNGGIPQKISLQDHLDKAKKDITFYMPVDNLGMAVIDWEEWRPTWARNWKPKDVYKNRSIELVQQQNVQLSLTEATEKAKQEFEKAGKDFLVETIKLGKLLRPNHLWGYYLFPDCYNHHYKKPGYNGSCFNVEIKRNDDLSWLWNESTALYPSIYLNTQQSPVAATLYVRNRVREAIRVSKIPDAKSPLPVFAYTRIVFTDQVLKFLSQDELVYTFGETVALGASGIVIWGTLSIMRSMKSCLLLDNYMETILNPYIINVTLAAKMCSQVLCQEQGVCIRKNWNSSDYLHLNPDNFAIQLEKGGKFTVRGKPTLEDLEQFSEKFYCSCYSTLSCKEKADVKDTDAVDVCIADGVCIDAFLKPPMETEEPQIFYNASPSTLSATMFIVSIL
modifications: mature HuPH20 36-499
B3: SPAM1-SILF: C-terminally truncated human PH20, precursor 500 aa (SEQ ID NO:48), mature 465 aa (SEQ ID NO:100) (protein, listed as Homo sapiens)
chain 1: MGVLKFKHIFFRSFVKSSGVSQIVFTFLLIPCCLTLNFRAPPVIPNVPFLWAWNAPSEFCLGKFDEPLDMSLFSFIGSPRINATGQGVTIFYVDRLGYYPYIDSITGVTVNGGIPQKISLQDHLDKAKKDITFYMPVDNLGMAVIDWEEWRPTWARNWKPKDVYKNRSIELVQQQNVQLSLTEATEKAKQEFEKAGKDFLVETIKLGKLLRPNHLWGYYLFPDCYNHHYKKPGYNGSCFNVEIKRNDDLSWLWNESTALYPSIYLNTQQSPVAATLYVRNRVREAIRVSKIPDAKSPLPVFAYTRIVFTDQVLKFLSQDELVYTFGETVALGASGIVIWGTLSIMRSMKSCLLLDNYMETILNPYIINVTLAAKMCSQVLCQEQGVCIRKNWNSSDYLHLNPDNFAIQLEKGGKFTVRGKPTLEDLEQFSEKFYCSCYSTLSCKEKADVKDTDAVDVCIADGVCIDAFLKPPMETEEPQIFYNASPSTLSATMFIVSILF
chain 2: LNFRAPPVIPNVPFLWAWNAPSEFCLGKFDEPLDMSLFSFIGSPRINATGQGVTIFYVDRLGYYPYIDSITGVTVNGGIPQKISLQDHLDKAKKDITFYMPVDNLGMAVIDWEEWRPTWARNWKPKDVYKNRSIELVQQQNVQLSLTEATEKAKQEFEKAGKDFLVETIKLGKLLRPNHLWGYYLFPDCYNHHYKKPGYNGSCFNVEIKRNDDLSWLWNESTALYPSIYLNTQQSPVAATLYVRNRVREAIRVSKIPDAKSPLPVFAYTRIVFTDQVLKFLSQDELVYTFGETVALGASGIVIWGTLSIMRSMKSCLLLDNYMETILNPYIINVTLAAKMCSQVLCQEQGVCIRKNWNSSDYLHLNPDNFAIQLEKGGKFTVRGKPTLEDLEQFSEKFYCSCYSTLSCKEKADVKDTDAVDVCIADGVCIDAFLKPPMETEEPQIFYNASPSTLSATMFIVSILF
modifications: HuPH20 precursor 1-500; Mature HuPH20 36-500
B4: SPAM1-FIVS: C-terminally truncated human PH20, precursor 497 aa (SEQ ID NO:8), mature 462 aa (SEQ ID NO:60) (protein, listed as Homo sapiens)
chain 1: MGVLKFKHIFFRSFVKSSGVSQIVFTFLLIPCCLTLNFRAPPVIPNVPFLWAWNAPSEFCLGKFDEPLDMSLFSFIGSPRINATGQGVTIFYVDRLGYYPYIDSITGVTVNGGIPQKISLQDHLDKAKKDITFYMPVDNLGMAVIDWEEWRPTWARNWKPKDVYKNRSIELVQQQNVQLSLTEATEKAKQEFEKAGKDFLVETIKLGKLLRPNHLWGYYLFPDCYNHHYKKPGYNGSCFNVEIKRNDDLSWLWNESTALYPSIYLNTQQSPVAATLYVRNRVREAIRVSKIPDAKSPLPVFAYTRIVFTDQVLKFLSQDELVYTFGETVALGASGIVIWGTLSIMRSMKSCLLLDNYMETILNPYIINVTLAAKMCSQVLCQEQGVCIRKNWNSSDYLHLNPDNFAIQLEKGGKFTVRGKPTLEDLEQFSEKFYCSCYSTLSCKEKADVKDTDAVDVCIADGVCIDAFLKPPMETEEPQIFYNASPSTLSATMFIVS
chain 2: LNFRAPPVIPNVPFLWAWNAPSEFCLGKFDEPLDMSLFSFIGSPRINATGQGVTIFYVDRLGYYPYIDSITGVTVNGGIPQKISLQDHLDKAKKDITFYMPVDNLGMAVIDWEEWRPTWARNWKPKDVYKNRSIELVQQQNVQLSLTEATEKAKQEFEKAGKDFLVETIKLGKLLRPNHLWGYYLFPDCYNHHYKKPGYNGSCFNVEIKRNDDLSWLWNESTALYPSIYLNTQQSPVAATLYVRNRVREAIRVSKIPDAKSPLPVFAYTRIVFTDQVLKFLSQDELVYTFGETVALGASGIVIWGTLSIMRSMKSCLLLDNYMETILNPYIINVTLAAKMCSQVLCQEQGVCIRKNWNSSDYLHLNPDNFAIQLEKGGKFTVRGKPTLEDLEQFSEKFYCSCYSTLSCKEKADVKDTDAVDVCIADGVCIDAFLKPPMETEEPQIFYNASPSTLSATMFIVS
modifications: HuPH20 precursor 1-497; esHuPH20 36-497

Tests used:
CHO-S cells [1] = test: PI-PLC treatment of expressing cells, Western blot of media and cells; type: cell-based, Chinese Hamster; conditions: cells incubated with PI-PLC for 2 hours
Procedure: In this example, following transient expression, as described in Example 2 above, the media and cells were harvested separately and analyzed for PH20 expression and solublility by Western blot analysis. Solubility of the C-terminus truncation mutants was determined by examining whether the expressed protein was present in the growth media or in the cells. […] Cells expressing these mutants were treated with phosphoinositol-phospholipase C (PI-PLC), which cleaves the GPI-anchor allowing the release of soluble protein into the media, and the presence of PH20 in the resulting media and cells was determined by Western blot analysis.
Following expression of rHuPH20 in CHO—S cells for 72 hours, as described in Example 2A above, the media and cells were harvested separately. The cells were washed with serum-free media followed by the addition of 2 mL serum-free media per well. PI-PLC (0.5 units/well) was added to each well and the cells were incubated in the PI-PLC for 2 hours. The resultant media and cells were analyzed by Western blot analysis as described above.
Two plates each of rHuPH20 expressing CHO—S cells, one for treatment with PI-PLC and one without treatment with PI-PLC, were prepared for each C-terminus mutant as described in Example 2B above. Following expression for 48 hours, for cells untreated with PI-PLC, the media and cells were harvested separately. The harvested media was spun down, concentrated to a volume of 10 mL, and buffer exchanged into PBS using an Amicon 30 kD MWCO concentrator. The cells were rinsed with cold PBS and scraped and resuspended in 1.2 mL PBS with protease inhibitor Set III (Cat No. 539134, Calbiochem). The resuspended cells were briefly sonicated to prepare whole-cell extract. For PI-PLC treatment of cells, following expression for 48 hours, the untreated media was harvested, as described above. The cells were rinsed once with fresh CD DG44 medium with Glutamax-1, and the media was replaced with 12 mL fresh detergent free CD DG44 medium supplemented with Glutamax-1 with 3.0 units PI-PLC per dish, and the cells were incubated for 2 hours at 37° C. with 5% CO2. After 2 hours, the PI-PLC media and cells were harvested separately, as described above. The resultant untreated media and cells, and PI-PLC treated media and cells, were analyzed by Western blot analysis as described above.

[2] = Microtiter hyaluronidase activity assay with biotinylated-hyaluronic acid; type: biochemical; conditions: for pH 5.5 Activity / pH 7.4 Activity: 72 hour post transfection supernatant; for Hyaluronidase activity (in words): pH 7.4 and pH 5.5
CHO-S cells [3] = test: Western blot analysis of PH20 expression in media and cells after transient expression; type: cell-based, Chinese Hamster; conditions: media versus cells
Procedure, shortened: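 CHO-S cells were transiently transfected with mutant PH20-HZ24 plasmids using GeneJuice and expressed for 48-72 h at 37 °C, 5% CO2. Media and cells were harvested separately, with PI-PLC treatment used to release GPI-anchored protein. Non-reduced samples were blotted with rabbit anti-PH20 (0.5 μg/mL), and a band near 66 kDa was scored as PH20.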

[4] = Triton X-114 partition assay; type: physicochemical; conditions: partition into aqueous phase of Triton X-114 at 37° C.
Procedure: Solubility of a hyaluronidase can be determined by any method known to one of the skill in the art. One method for determining solubility is by detergent partitioning. […] For example, the solubility of the PH20 polypeptides described herein is assessed as described in Example 4. Membrane-anchored hyaluronidases, such as lipid-anchored hyaluronidases, including GPI-anchored hyaluronidases, will partition into the detergent-rich phase, but will partition into the detergent-poor or aqueous phase following treatment with Phospholipase C. Phospholipase C is an enzyme that cleaves the […] found in GPI-anchored proteins. Treatment with PLC will cause release of GPI-linked proteins from the outer cell membrane.
The samples were heated to 37° C. for 3 minutes to induce phase separation and centrifuged for 3 min at 4000 g at room temperature. Aqueous and detergent phases were removed for SDS-PAGE analysis and Western blotting. Rabbit anti-PH20 IgG (0.5 μg/mL) was used as the primary antibody and HRP-conjugated goat anti-Rabbit IgG (0.1 ng/mL, Cat#DC03L, EMD) was used as the secondary antibody. Full length human PH20, which partitions strongly into the detergent phase, was used as a control.

Molecule	Expressed in Media Following Addition of PI-PLC (CHO-S cells [1])	pH 5.5 Activity ([2]; Table 6A) [Units/ml]	pH 7.4 Activity ([2]; Table 6A) [Units/ml]	Hyaluronidase activity (in words) [2]	Expressed in Media (CHO-S cells [3])	Soluble [4]	pH 5.5 Activity ([2]; Table 6) [Units/ml]	pH 7.4 Activity ([2]; Table 6) [Units/ml]
B1	Initially in media	0.203	0.527	little detectable activity	YES	YES		
B2	Initially in media	0.122	0.486	little detectable activity	YES	YES	0.045	0.02025
B3	Initially in media	0.162	0.365	little detectable activity	WEAK/YES	YES		
B4	Initially in media	0.162	0.365		YES	YES	0.216	0.1755
